Here are results for 52 sequences from the supplement of paper PMC10567573.

± gives the standard deviation.

This series is described as follows: protein stability index of a GFP-peptide fusion (GPS, HEK-293T) (PSI 1-6); higher = more stable.
[1] abbreviates: treatment: DMSO, c terminus: a fixed tail appended.
Where [2] appears, read: treatment: MLN4924 1 uM, 8 h, c terminus: a fixed tail appended.
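Also: 24-mer peptide tiles fused after GFP, lentivirally expressed, FACS-sorted into six equal bins by GFP/DsRed ratio, decoded by Illumina sequencing, PSI is the read-weighted mean bin number.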

For the sequence TGSYNNFFRMFDRNTKRDVTLEAS [PPP2R2B], the protein stability index by setting is: under setting [1], 3.1 ± 0.26; under setting [2], 3.47 ± 0.33.

Regarding HSSWTPPNAQYWSQFHSVRPQGPQ [DNAJC4], the protein stability index came out at 3.23 ± 0.053 under setting [1] and 3.34 ± 0.22 under setting [2].

Take RKLLEGEESRISVPVHSFASLNIK [PRPH]: the protein stability index runs as follows: under setting [1], 2.96 ± 0.23; under setting [2], 3.31 ± 0.41.

Consider ADNMLEYKSWLKNLAKEQLSRENI [PPEF2], for which the protein stability index reads like this: under setting [1], 3.61 ± 0.27; under setting [2], 3.75 ± 0.38.

Turning to ISIPITGDTLRTFSLVLVLDLSKP [DYNC2LI1], the protein stability index under setting [1] stood at 2.69 ± 0.62 and the protein stability index under setting [2] was 2.865 ± 0.02.

GELRLGKNLYTNEYVAIKLEPMKS [CSNK1G3]: the protein stability index was determined as 2.32 ± 0.29 under setting [1] and 2.27 ± 0.7 under setting [2].

On to TPTSPECDYSQYFKTIEELRDKIM [KRT15], for which the protein stability index reads like this: under setting [1], 3.4 ± 0.27; under setting [2], 3.6 ± 0.43.

In the case of SKDCKPPVYLLLELEDKDGLQSAQ [MYBL2], the protein stability index under setting [1] came out at 3.93 ± 0.18 and the protein stability index under setting [2] was 3.87 ± 0.12.

Consider HYSLLTSQPLDREATSHYIIELLA [PCDHGC5], for which the protein stability index by setting is: under setting [1], 2.36 ± 0.13; under setting [2], 2.63 ± 0.32.

For LPLLRQTAGKVLAHFYGVKLEGKV [ESRRA], the protein stability index came to 2.26 ± 0.31 under setting [1] and 2.11 ± 0.18 under setting [2].

MGGCPVRKRRRNGSKEGNHHSTQP [FAM104B] returned a protein stability index under setting [1] of 4.72 ± 0.17 and a protein stability index under setting [2] of 4.86 ± 0.24.

LFGDAFAASPGEAPAASEGAAAPA [SNAP91]: the protein stability index by setting is: under setting [1], 5.07 ± 0.3; under setting [2], 5.15 ± 0.15.

As to TIHGLIYNALKLFMEMNQKLFDDC [PPP2R5C], the protein stability index is, setting by setting: under setting [1], 2.93 ± 0.33; under setting [2], 2.89 ± 0.45.

For FLDIDTSAVEKEPARAPPEPPHNL [SERTAD3], the protein stability index is 4.84 ± 0.13 under setting [1] and 4.98 ± 0.45 under setting [2].

As for QINRLQKLIDRLEKKDLKLEPPEE [NECAB1], the protein stability index is, setting by setting: under setting [1], 3.22 ± 0.1; under setting [2], 3.7 ± 0.56.

Turning to KTLAVKNEEIQSFIYSLKQMLLNV [FSD1], the protein stability index by setting is: under setting [1], 2.52 ± 0.37; under setting [2], 2.14 ± 0.21.

Take ARRKLKGAILTTMLATRNFSGGKS [CAMK2A]: the protein stability index reads like this: under setting [1], 3.21 ± 0.37; under setting [2], 3.34 ± 0.47.

Regarding VSRRLSPRKVSTCTDHELENHSMY [TRIM9], the protein stability index came out at 3.7 ± 0.22 under setting [1] and 3.77 ± 0.19 under setting [2].

As to EMQQQMSLGELCHPVPLSFEPVKS [TRIM14], the protein stability index was 3.62 ± 0.22 under setting [1] and 4.05 ± 0.31 under setting [2].

As to LPGLAGPSGEMVKSTTSLTSSSTS [MLH1], the protein stability index under setting [1] was 4.83 ± 0.17 and the protein stability index under setting [2] came to 4.82 ± 0.058.

On to EVEAKFKRYESHPVCADLQAKILQ [CHCHD3], for which the protein stability index under setting [1] was 3.66 ± 0.21 and the protein stability index under setting [2] worked out at 3.58 ± 0.078.

For the sequence KDEDLDLFPASPTREAHRESSVPV [FBF1], the protein stability index is, setting by setting: under setting [1], 5.11 ± 0.33; under setting [2], 5.02 ± 0.35.

With SPSPSSRVTVSRASSSRSVRTTRG [LMNB1], the protein stability index came out at 5.08 ± 0.27 under setting [1] and 5.12 ± 0.09 under setting [2].

With WAVQGQNVLHGYPKDIYSSFGFPR [MMP1], the protein stability index by setting is: under setting [1], 2.39 ± 0.18; under setting [2], 2.15 ± 0.057.

As for YQLGEEALLKFREDEGFVREEEDR [KCNA4], the protein stability index under setting [1] amounted to 4.51 ± 0.22 and the protein stability index under setting [2] was 4.85 ± 0.31.

DFPEDGLKIFTEDLPEVESLPRDR [VPS39]: the protein stability index is, setting by setting: under setting [1], 5.31 ± 0.31; under setting [2], 5.39 ± 0.068.

For the sequence HVKMMLSGVCLFAVFIALLPILGH [PTGFR], the protein stability index reads like this: under setting [1], 2.97 ± 0.83; under setting [2], 2.79 ± 0.78.

In the case of EQHVHNEKSVLKEVSHPFLIRLFW [PRKX], the protein stability index turned out to be 2.25 ± 0.25 under setting [1] and 2.26 ± 0.081 under setting [2].

The sequence DFSGLTLDGALRTFLKAFPLMGET [PSD2] had a protein stability index under setting [1] of 1.91 ± 0.24 and a protein stability index under setting [2] of 2.05 ± 0.34.

On to YYGFSESAESQGLDGAGLMGFVPH [ADAMTSL2], for which the protein stability index runs as follows: under setting [1], 3 ± 0.41; under setting [2], 3 ± 0.47.

Turning to ATNPHVKPPYSYATLICMAMQASK [FOXJ1], the protein stability index runs as follows: under setting [1], 2.29 ± 0.32; under setting [2], 2.36 ± 0.064.

With SVTGLDPEARYLFLLDVIPVDGAR [TBX6], the protein stability index is, setting by setting: under setting [1], 2.15 ± 0.47; under setting [2], 2 ± 0.13.

In the case of GTPSLLRGKRGGHATNYRIVAPRS [EMID1], the protein stability index is, setting by setting: under setting [1], 4.1 ± 0.12; under setting [2], 3.88 ± 0.32.

As for INSGYETRRKKGKKDKDISKEKDT [KMT2E], the protein stability index was 4.59 ± 0.13 under setting [1] and 4.78 ± 0.16 under setting [2].

Turning to ALRMATWNQILDPWVYILLRKAVL [PTGFR], the protein stability index is 2.98 ± 0.68 under setting [1] and 2.43 ± 0.41 under setting [2].

For the sequence SADVNARDKNWQTPLHVAAANKAV [ANKRD44], the protein stability index by setting is: under setting [1], 4.18 ± 0.31; under setting [2], 4.07 ± 0.18.

On to FRCPTCRHEVIMDRHGVYGLQRNL [TRIM63], for which the protein stability index is 2.31 ± 0.3 under setting [1] and 2.83 ± 0.52 under setting [2].

Regarding RISNPSDDNSCEDLEEERREEEEK [PCMTD2], the protein stability index is, setting by setting: under setting [1], 5.59 ± 0.099; under setting [2], 5.704 ± 0.05.

Turning to SRSNNMGIVGGFTQMIREGGARSL [SLC25A25], the protein stability index under setting [1] came to 3.17 ± 0.27 and the protein stability index under setting [2] stood at 3.47 ± 0.18.

Regarding YKKAVGLKLKQEKKEAYLKLKQG [WDR88], the protein stability index is, setting by setting: (treatment: DMSO, c terminus: native) 2.81 ± 0.4; (treatment: MLN4924 1 uM, 8 h, c terminus: native) 3.13 ± 0.3.

Take FVADEGICYLPHWMMQNLLLEEGG [UFD1]: the protein stability index is, setting by setting: under setting [1], 2.36 ± 0.62; under setting [2], 2.28 ± 0.38.

Turning to VAAAAAATTAATAAATTTTTTSAA [SNAP91], the protein stability index was 5.39 ± 0.13 under setting [1] and 5.34 ± 0.068 under setting [2].

Consider PGMASHPPIPILELADHIERLKAN [PTPRD], for which the protein stability index came to 3.6 ± 0.18 under setting [1] and 3.81 ± 0.19 under setting [2].

Take NEGAIDCVNYEGQSAYDVADMLKQ [DLC1]: the protein stability index reads like this: under setting [1], 4.82 ± 0.28; under setting [2], 4.82 ± 0.12.

For the sequence KYKSFNRTAMPYGGYEKASKRMTF [MYOZ1], the protein stability index is, setting by setting: under setting [1], 2.34 ± 0.31; under setting [2], 2.57 ± 0.24.

As for LVFQRRMDGQTDFWRDWEDYAHGF [TNXB], the protein stability index reads like this: under setting [1], 2.64 ± 0.61; under setting [2], 1.93 ± 0.51.

For the sequence QQACTHTKETEQLRSQLQTLKQQH [CCDC89], the protein stability index stood at 4.71 ± 0.17 under setting [1] and 4.65 ± 0.17 under setting [2].

As for PVPATPILQLEECCTHNNSATLSW [TRIM9], the protein stability index amounted to 3.27 ± 0.16 under setting [1] and 3.38 ± 0.18 under setting [2].

Regarding DDFHTNDVCSFPNALVTKLLLDCG [FEM1B], the protein stability index by setting is: under setting [1], 2.55 ± 0.26; under setting [2], 2.44 ± 0.2.

For the sequence LFDMCGISEAQLKDRETSKVIYDF [WASL], the protein stability index is, setting by setting: under setting [1], 2.58 ± 0.16; under setting [2], 2.7 ± 0.3.

Consider EKLNIPWNHIRLQRTAKGKPVLAK [AASDHPPT], for which the protein stability index was 3.16 ± 0.2 under setting [1] and 3.05 ± 0.33 under setting [2].

For the sequence HQRTHTGEKPFTCHECGKKFSQNS [ZNF75A], the protein stability index came out at 3.14 ± 0.27 under setting [1] and 3.47 ± 0.33 under setting [2].
